# Assay results from the Immune Epitope Database (IEDB).
# Columns and labels:
# HLA-A*24:03 = experiment: IEDB peptide-MHC binding, purified MHC/competitive/fluorescence; filed as Kd, often an IC50 or EC50 that approximates it; ≥ and ≤ were set here for values at or beyond the usual limits of such assays
# HLA-A*29:02 = experiment: as above
# HLA-A*02:01 = experiment: as above
# HLA-B*57:01 = experiment: as above
# HLA-B*46:01 [1] = experiment: as above
# HLA-B*18:01 = experiment: as above
# HLA-A*26:01 = experiment: as above
# HLA-B*15:01 = experiment: as above
# HLA-B*27:03 = experiment: as above
# HLA-A*02:12 = experiment: as above
# HLA-A*02:19 = experiment: as above
# HLA-B*15:17 = experiment: as above
# HLA-A*23:01 = experiment: as above
# HLA-A*02:11 = experiment: as above
# HLA-A*02:03 = experiment: as above
# HLA-B*39:01 = experiment: as above
# HLA-B*51:01 = experiment: as above
# HLA-A*03:01 = experiment: as above
# HLA-A*26:03 = experiment: IEDB peptide-MHC binding, purified MHC/direct/fluorescence; filed as Kd, often an IC50 or EC50 that approximates it; ≥ and ≤ were set here for values at or beyond the usual limits of such assays; conditions: source organism: Burkholderia mallei ATCC 23344
# HLA-A*02:16 = experiment: IEDB peptide-MHC binding, purified MHC/competitive/fluorescence; filed as Kd, often an IC50 or EC50 that approximates it; ≥ and ≤ were set here for values at or beyond the usual limits of such assays; conditions: source organism: Shigella dysenteriae Sd197
# HLA-B*15:02 = experiment: as above
# HLA-B*27:05 = experiment: as above; conditions: source organism: Escherichia coli 536
# HLA-A*02:06 = experiment: as above; conditions: source organism: Escherichia coli 536
# HLA-A*26:02 = experiment: as above; conditions: source organism: Escherichia coli 536
# HLA-A*01:01 = experiment: as above; conditions: source organism: Escherichia coli 536
# HLA-B*46:01 [2] = experiment: IEDB peptide-MHC binding, purified MHC/direct/fluorescence; filed as Kd, often an IC50 or EC50 that approximates it; ≥ and ≤ were set here for values at or beyond the usual limits of such assays; conditions: source organism: Burkholderia mallei
# HLA-A*31:01 = experiment: as above; conditions: source organism: Burkholderia mallei
# HLA-A*11:01 = experiment: as above; conditions: source organism: Burkholderia mallei
# HLA-A*68:02 = experiment: as above; conditions: source organism: Burkholderia mallei
# HLA-A*69:01 = experiment: as above; conditions: source organism: Burkholderia mallei
# HLA-B*07:02 = experiment: as above; conditions: source organism: Burkholderia mallei
# HLA-B*40:01 = experiment: as above; conditions: source organism: Burkholderia mallei
# HLA-B*48:01 = experiment: as above; conditions: source organism: Burkholderia mallei
# HLA-C*12:03 = experiment: as above; conditions: source organism: Francisella tularensis subsp. tularensis FSC198
# HLA-B*40:13 = experiment: IEDB peptide-MHC binding, purified MHC/competitive/fluorescence; filed as Kd, often an IC50 or EC50 that approximates it; ≥ and ≤ were set here for values at or beyond the usual limits of such assays; conditions: source organism: Yersinia pestis Nepal516
# HLA-A*32:15 = experiment: as above; conditions: source organism: Yersinia pestis Nepal516
# HLA-C*06:02 = experiment: as above; conditions: source organism: Yersinia pestis Nepal516
# HLA-B*45:06 = experiment: as above; conditions: source organism: Yersinia pestis Nepal516
# HLA-B*83:01 = experiment: as above; conditions: source organism: Yersinia pestis Nepal516
# HLA-B*58:01 = experiment: as above; conditions: source organism: Yersinia pestis Nepal516
# HLA-A*32:07 = experiment: as above; conditions: source organism: Yersinia pestis Nepal516
# HLA-A*68:23 = experiment: as above; conditions: source organism: Yersinia pestis Nepal516
# HLA-B*15:42 = experiment: as above; conditions: source organism: Yersinia pestis Nepal516
# HLA-A*24:02 = experiment: as above; conditions: source organism: Yersinia pestis Nepal516
# [3] = source organism: Mycobacterium tuberculosis variant bovis BCG str. Pasteur 1173P2
# [4] = source organism: Shigella dysenteriae Sd197
# [5] = source organism: Escherichia coli 536
# [6] = source organism: Yersinia pestis Nepal516
sequence,measurement,setting,value
AEDLADHHV,Kd,HLA-A*24:03; [3],≥ 20 µM
same,Kd,HLA-A*29:02; [3],≥ 20 µM
same,Kd,HLA-A*02:01; [3],≥ 20 µM
same,Kd,HLA-B*57:01; [3],≥ 20 µM
same,Kd,HLA-B*46:01 [1]; [3],≥ 20 µM
same,Kd,HLA-B*18:01; [3],≥ 20 µM
same,Kd,HLA-A*26:01; [3],≥ 20 µM
same,Kd,HLA-B*15:01; [3],≥ 20 µM
same,Kd,HLA-B*27:03; [3],≥ 20 µM
same,Kd,HLA-A*02:12; [3],≥ 20 µM
same,Kd,HLA-A*02:19; [3],≥ 20 µM
same,Kd,HLA-B*15:17; [3],≥ 20 µM
same,Kd,HLA-A*23:01; [3],≥ 20 µM
same,Kd,HLA-A*02:11; [3],0.0131 µM
same,Kd,HLA-A*02:03; [3],≥ 20 µM
same,Kd,HLA-B*39:01; [3],≥ 20 µM
same,Kd,HLA-B*51:01; [3],≥ 20 µM
same,Kd,HLA-A*03:01; [3],≥ 20 µM
DIIGGPCAH,Kd,HLA-A*26:03,2 µM
IEDDEIIWV,Kd,HLA-A*24:03; [4],≥ 20 µM
same,Kd,HLA-A*29:02; [4],≥ 20 µM
same,Kd,HLA-A*02:01; [4],≥ 20 µM
same,Kd,HLA-B*57:01; [4],≥ 20 µM
same,Kd,HLA-B*46:01 [1]; [4],≥ 20 µM
same,Kd,HLA-B*18:01; [4],≥ 20 µM
same,Kd,HLA-A*02:16,≥ 20 µM
same,Kd,HLA-A*26:01; [4],≥ 20 µM
same,Kd,HLA-B*15:01; [4],≥ 20 µM
same,Kd,HLA-B*27:03; [4],≥ 20 µM
same,Kd,HLA-A*02:12; [4],≥ 20 µM
same,Kd,HLA-A*02:19; [4],≥ 20 µM
same,Kd,HLA-B*15:17; [4],≥ 20 µM
same,Kd,HLA-A*23:01; [4],≥ 20 µM
same,Kd,HLA-A*02:11; [4],0.0002 µM
same,Kd,HLA-A*02:03; [4],≥ 20 µM
same,Kd,HLA-B*39:01; [4],≥ 20 µM
same,Kd,HLA-B*51:01; [4],≥ 20 µM
same,Kd,HLA-A*03:01; [4],≥ 20 µM
ILKEYPQVY,Kd,HLA-B*15:02; source organism: Encephalitozoon cuniculi GB-M1,0.155 µM
KLYPNVDFY,Kd,HLA-A*02:01; [5],≥ 20 µM
same,Kd,HLA-B*18:01; [5],≥ 20 µM
same,Kd,HLA-A*26:01; [5],≥ 20 µM
same,Kd,HLA-B*15:01; [5],0.107 µM
same,Kd,HLA-B*27:05,≥ 20 µM
same,Kd,HLA-B*15:17; [5],0.207 µM
same,Kd,HLA-A*02:06,1.6 µM
same,Kd,HLA-A*26:02,≥ 20 µM
same,Kd,HLA-A*01:01,3.47 µM
same,Kd,HLA-B*46:01 [2],≥ 20 µM
same,Kd,HLA-A*31:01,3.63 µM
same,Kd,HLA-A*11:01,0.225 µM
same,Kd,HLA-A*68:02,≥ 20 µM
same,Kd,HLA-A*69:01,≥ 20 µM
same,Kd,HLA-B*07:02,≥ 20 µM
same,Kd,HLA-B*40:01,≥ 20 µM
same,Kd,HLA-B*48:01,≥ 20 µM
MIYNSFNPY,Kd,HLA-B*15:02; source organism: Francisella tularensis subsp. tularensis FSC198,≥ 20 µM
same,Kd,HLA-C*12:03,≥ 20 µM
MLYPLLWMF,Kd,HLA-A*02:01; [6],0.169 µM
same,Kd,HLA-B*40:13,3.5 µM
same,Kd,HLA-A*32:15,0.155 µM
same,Kd,HLA-B*15:01; [6],0.406 µM
same,Kd,HLA-C*06:02,3.57 µM
same,Kd,HLA-B*45:06,≥ 5 µM
same,Kd,HLA-B*83:01,≥ 5 µM
same,Kd,HLA-B*58:01,2.06 µM
same,Kd,HLA-A*32:07,0.599 µM
same,Kd,HLA-A*68:23,0.968 µM
same,Kd,HLA-B*15:42,≥ 5 µM
same,Kd,HLA-A*24:02,0.0377 µM
